Target: bovine articular cartilage aggrecan, P13608
Sequence (P13608 17-2364): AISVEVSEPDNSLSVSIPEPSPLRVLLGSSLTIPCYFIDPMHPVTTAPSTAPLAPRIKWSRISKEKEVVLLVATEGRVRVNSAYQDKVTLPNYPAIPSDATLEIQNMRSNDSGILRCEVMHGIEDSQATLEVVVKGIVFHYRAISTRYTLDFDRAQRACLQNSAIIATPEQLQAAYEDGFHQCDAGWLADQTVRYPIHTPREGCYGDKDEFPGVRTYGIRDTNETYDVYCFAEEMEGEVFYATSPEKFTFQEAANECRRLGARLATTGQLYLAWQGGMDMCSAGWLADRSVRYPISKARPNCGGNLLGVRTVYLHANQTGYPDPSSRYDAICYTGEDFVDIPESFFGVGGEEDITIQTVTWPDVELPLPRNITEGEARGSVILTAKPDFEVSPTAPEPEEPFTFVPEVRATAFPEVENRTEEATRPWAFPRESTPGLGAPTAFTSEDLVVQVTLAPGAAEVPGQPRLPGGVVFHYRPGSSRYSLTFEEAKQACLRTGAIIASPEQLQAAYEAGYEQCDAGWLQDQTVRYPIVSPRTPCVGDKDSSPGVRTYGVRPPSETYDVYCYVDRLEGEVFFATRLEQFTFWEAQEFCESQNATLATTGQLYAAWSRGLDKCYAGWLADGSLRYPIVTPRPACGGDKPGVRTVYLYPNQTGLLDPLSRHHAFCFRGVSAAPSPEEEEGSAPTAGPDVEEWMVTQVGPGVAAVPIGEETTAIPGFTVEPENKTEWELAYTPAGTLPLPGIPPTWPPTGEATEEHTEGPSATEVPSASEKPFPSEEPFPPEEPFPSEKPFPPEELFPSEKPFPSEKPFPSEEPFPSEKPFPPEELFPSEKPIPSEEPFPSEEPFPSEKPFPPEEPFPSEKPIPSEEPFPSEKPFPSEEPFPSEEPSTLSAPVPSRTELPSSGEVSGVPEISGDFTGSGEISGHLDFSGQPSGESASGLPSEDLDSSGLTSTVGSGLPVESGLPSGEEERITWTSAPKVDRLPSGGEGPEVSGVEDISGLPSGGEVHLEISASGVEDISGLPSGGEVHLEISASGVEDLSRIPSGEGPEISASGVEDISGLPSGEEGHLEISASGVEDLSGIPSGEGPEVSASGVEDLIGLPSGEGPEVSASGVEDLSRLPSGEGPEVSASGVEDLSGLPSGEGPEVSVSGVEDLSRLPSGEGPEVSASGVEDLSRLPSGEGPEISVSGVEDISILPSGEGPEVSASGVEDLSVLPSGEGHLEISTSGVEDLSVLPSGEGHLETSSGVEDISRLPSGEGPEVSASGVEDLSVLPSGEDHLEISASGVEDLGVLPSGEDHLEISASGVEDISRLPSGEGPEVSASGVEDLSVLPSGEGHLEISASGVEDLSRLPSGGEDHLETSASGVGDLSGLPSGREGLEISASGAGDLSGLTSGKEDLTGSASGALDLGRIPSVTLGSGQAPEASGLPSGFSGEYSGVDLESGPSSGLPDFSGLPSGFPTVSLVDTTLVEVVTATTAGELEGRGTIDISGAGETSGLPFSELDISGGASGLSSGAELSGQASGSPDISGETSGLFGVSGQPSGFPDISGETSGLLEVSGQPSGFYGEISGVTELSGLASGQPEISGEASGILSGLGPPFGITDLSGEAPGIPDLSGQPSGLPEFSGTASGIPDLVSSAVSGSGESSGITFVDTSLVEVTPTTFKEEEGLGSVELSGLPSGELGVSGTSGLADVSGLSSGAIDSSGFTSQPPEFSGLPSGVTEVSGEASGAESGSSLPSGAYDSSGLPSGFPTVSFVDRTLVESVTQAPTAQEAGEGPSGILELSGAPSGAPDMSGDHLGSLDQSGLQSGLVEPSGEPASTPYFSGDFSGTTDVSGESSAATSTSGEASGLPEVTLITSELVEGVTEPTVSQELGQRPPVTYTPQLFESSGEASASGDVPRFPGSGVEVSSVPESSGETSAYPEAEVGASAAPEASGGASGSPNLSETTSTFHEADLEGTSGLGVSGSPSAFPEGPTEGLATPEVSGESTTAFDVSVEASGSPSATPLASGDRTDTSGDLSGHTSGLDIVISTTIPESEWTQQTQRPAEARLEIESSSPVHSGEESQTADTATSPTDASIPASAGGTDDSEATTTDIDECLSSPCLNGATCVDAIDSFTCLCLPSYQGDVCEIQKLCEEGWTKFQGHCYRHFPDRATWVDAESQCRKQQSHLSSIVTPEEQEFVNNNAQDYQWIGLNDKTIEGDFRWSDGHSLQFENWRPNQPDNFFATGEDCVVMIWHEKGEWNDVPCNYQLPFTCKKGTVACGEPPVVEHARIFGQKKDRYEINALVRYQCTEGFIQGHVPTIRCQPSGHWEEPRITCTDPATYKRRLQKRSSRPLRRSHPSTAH

Protein | aggrecanase activity | also measured
furin-processed mature protein of construct C (protein) FASLSRFVETLVVADDKMAAFHGAGLKRYLLTVMAAAAKAFKHPSIRNPVSLVVTRLVILGSGEEGPQVGPSAAQTLRSFCAWQRGLNTPEDSDPDHFDTAILFTRQDLCGVSTCDTLGMADVGTVCDPARSCAIVEDDGLQSAFTAAHELGHVFNMLHDNSKPCISLNGPLSTSRHVMAPVMAHVDPEEPWSPCSARFITDFLDNGYGHCLLDKPEAPLHLPVTFPGKDYDADRQCQLTFGPDSRHCPQLPPPCAALWCSGHLNGHAMCQTKHSPWADGTPCGPAQACMGGRCLHMDQLQDFNIPQAGGWGPWGPWGDCSRTCGGGVQFSSRDCTRPVPRNGGKYCEGRRTRFRSCNTEDCPTGSALTFREEQCAAYNHRTDLFKSFPGPMDWVPRYTGVAPQDQCKLTCQARALGYYYVLEPRVVDGTPCSPDSSSVCVQGRCIHAGCDRIIGSKKKFDKCMVCGGDGSGCSGSAWSHPQFEK | The furin-processed mature proteins of construct C and D (SEQ ID NOS:47 and 48, respectively) have aggrecanase activity | 
mature protein of construct G (full-length ADAMTS4 active-site mutant E362Q with FLAG tag) (protein) FASLSRFVETLVVADDKMAAFHGAGLKRYLLTVMAAAAKAFKHPSIRNPVSLVVTRLVILGSGEEGPQVGPSAAQTLRSFCAWQRGLNTPEDSDPDHFDTAILFTRQDLCGVSTCDTLGMADVGTVCDPARSCAIVEDDGLQSAFTAAHQLGHVFNMLHDNSKPCISLNGPLSTSRHVMAPVMAHVDPEEPWSPCSARFITDFLDNGYGHCLLDKPEAPLHLPVTFPGKDYDADRQCQLTFGPDSRHCPQLPPPCAALWCSGHLNGHAMCQTKHSPWADGTPCGPAQACMGGRCLHMDQLQDFNIPQAGGWGPWGPWGDCSRTCGGGVQFSSRDCTRPVPRNGGKYCEGRRTRFRSCNTEDCPTGSALTFREEQCAAYNHRTDLFKSFPGPMDWVPRYTGVAPQDQCKLTCQARALGYYYVLEPRVVDGTPCSPDSSSVCVQGRCIHAGCDRIIGSKKKFDKCMVCGGDGSGCSKQSGSFRKFRYGYNNVVTIPAGATHILVRQQGNPGHRSIYLALKLPDGSYALNGEYTLMPSPTDVVLPGAVSLRYSGATAASETLSGHGPLAQPLTLQVLVAGNPQDTRLRYSFFVPRPTPSTPRPTPQDWLHRRAQILEILRRRPWAGRKVDYKDDDDK | The E362Q mutation abolished the aggrecanase activity of the mature protein (SEQ ID NO:50) of construct G | 
furin-processed mature protein of construct D (protein) FASLSRFVETLVVADDKMAAFHGAGLKRYLLTVMAAAAKAFKHPSIRNPVSLVVTRLVILGSGEEGPQVGPSAAQTLRSFCAWQRGLNTPEDSDPDHFDTAILFTRQDLCGVSTCDTLGMADVGTVCDPARSCAIVEDDGLQSAFTAAHELGHVFNMLHDNSKPCISLNGPLSTSRHVMAPVMAHVDPEEPWSPCSARFITDFLDNGYGHCLLDKPEAPLHLPVTFPGKDYDADRQCQLTFGPDSRHCPQLPPPCAALWCSGHLNGHAMCQTKHSPWADGTPCGPAQACMGGRCLHMDQLQDFNIPQAGGWGPWGPWGDCSRTCGGGVQFSSRDCTRPVPRNGGKYCEGRRTRFRSCNTEDCPTGSALTFREEQCAAYNHRTDLFKSFPGPMDWVPRYTGVAPQDQCKLTCQARALGYYYVLEPRVVDGTPCSPDSSSVCVQGRCIHAGCDRIIGSKKKFDKCMVCGGDGSGCS | The furin-processed mature proteins of construct C and D (SEQ ID NOS:47 and 48, respectively) have aggrecanase activity | 
ADAMTS4(p40), auto-digested isoform of human ADAMTS4 (protein) FASLSRFVETLVVADDKMAAFHGAGLKRYLLTVMAAAAKAFKHPSIRNPVSLVVTRLVILGSGEEGPQVGPSAAQTLRSFCAWQRGLNTPEDSDPDHFDTAILFTRQDLCGVSTCDTLGMADVGTVCDPARSCAIVEDDGLQSAFTAAHELGHVFNMLHDNSKPCISLNGPLSTSRHVMAPVMAHVDPEEPWSPCSARFITDFLDNGYGHCLLDKPEAPLHLPVTFPGKDYDADRQCQLTFGPDSRHCPQLPPPCAALWCSGHLNGHAMCQTKHSPWADGTPCGPAQACMGGRCLHMDQLQDFNIPQAGGWGPWGPWGDCSRTCGGGVQFSSRDCTRPVPRNGGKYCEGRRTRFRSCNTEDCPTGSALT |  | aggrecanase activity (Western blot with MAb BC-3 for the 374ARGXX neoepitope): both isoforms have aggrecanase activity
furin-processed protein of construct B (truncated ADAMTS4, catalytic domain with His tag) (protein) FASLSRFVETLVVADDKMAAFHGAGLKRYLLTVMAAAAKAFKHPSIRNPVSLVVTRLVILGSGEEGPQVGPSAAQTLRSFCAWQRGLNTPEDSDPDHFDTAILFTRQDLCGVSTCDTLGMADVGTVCDPARSCAIVEDDGLQSAFTAAHELGHVFNMLHDNSKPCISLNGPLSTSRHVMAPVMAHVDPEEPWSPCSARFITDFLDNGYGHCLLDKPEHHHHHH |  | enzymatic (aggrecanase) activity: The furin-processed protein from this construct is enzymatically inactive (SEQ ID NO:46)
ADAMTS4(p53), auto-digested isoform of human ADAMTS4 (protein) FASLSRFVETLVVADDKMAAFHGAGLKRYLLTVMAAAAKAFKHPSIRNPVSLVVTRLVILGSGEEGPQVGPSAAQTLRSFCAWQRGLNTPEDSDPDHFDTAILFTRQDLCGVSTCDTLGMADVGTVCDPARSCAIVEDDGLQSAFTAAHELGHVFNMLHDNSKPCISLNGPLSTSRHVMAPVMAHVDPEEPWSPCSARFITDFLDNGYGHCLLDKPEAPLHLPVTFPGKDYDADRQCQLTFGPDSRHCPQLPPPCAALWCSGHLNGHAMCQTKHSPWADGTPCGPAQACMGGRCLHMDQLQDFNIPQAGGWGPWGPWGDCSRTCGGGVQFSSRDCTRPVPRNGGKYCEGRRTRFRSCNTEDCPTGSALTFREEQCAAYNHRTDLFKSFPGPMDWVPRYTGVAPQDQCKLTCQARALGYYYVLEPRVVDGTPCSPDSSSVCVQGRCIHAGCDRIIGSKKKFDKCMVCGGDGSGCSKQSGSFRK |  | aggrecanase activity (Western blot with MAb BC-3 for the 374ARGXX neoepitope): both isoforms have aggrecanase activity
furin-processed construct I (truncated ADAMTS4 active-site mutant without the spacer and the TSP-1 domain, C-terminal FLAG tag) (protein) FASLSRFVETLVVADDKMAAFHGAGLKRYLLTVMAAAAKAFKHPSIRNPVSLVVTRLVILGSGEEGPQVGPSAAQTLRSFCAWQRGLNTPEDSDPDHFDTAILFTRQDLCGVSTCDTLGMADVGTVCDPARSCAIVEDDGLQSAFTAAHQLGHVFNMLHDNSKPCISLNGPLSTSRHVMAPVMAHVDPEEPWSPCSARFITDFLDNGYGHCLLDKPEAPLHLPVTFPGKDYDADRQCQLTFGPDSRHCPQLPPPCAALWCSGHLNGHAMCQTKHSPWADGTPCGPAQACMGGRCLHMDQLQDFNIPQAVDYKDDDDK | Furin-processed construct H (SEQ ID NO:51) and construct I (SEQ ID NO:52) lack aggrecanase activity | 
furin-processed construct H (truncated ADAMTS4 active-site mutant without the spacer domain, C-terminal FLAG tag) (protein) FASLSRFVETLVVADDKMAAFHGAGLKRYLLTVMAAAAKAFKHPSIRNPVSLVVTRLVILGSGEEGPQVGPSAAQTLRSFCAWQRGLNTPEDSDPDHFDTAILFTRQDLCGVSTCDTLGMADVGTVCDPARSCAIVEDDGLQSAFTAAHQLGHVFNMLHDNSKPCISLNGPLSTSRHVMAPVMAHVDPEEPWSPCSARFITDFLDNGYGHCLLDKPEAPLHLPVTFPGKDYDADRQCQLTFGPDSRHCPQLPPPCAALWCSGHLNGHAMCQTKHSPWADGTPCGPAQACMGGRCLHMDQLQDFNIPQAGGWGPWGPWGDCSRTCGGGVQFSSRDCTRPVPRNGGKYCEGRRTRFRSCNTEDCPVDYKDDDDK | Furin-processed construct H (SEQ ID NO:51) and construct I (SEQ ID NO:52) lack aggrecanase activity | 
